From article doi:10.1101/2022.11.10.515958 (bioRxiv, 2022)

Biological target: T1, GST-Whi7 (S. cerevisiae, UniProt P36167 1-246)
T1 sequence (looked up): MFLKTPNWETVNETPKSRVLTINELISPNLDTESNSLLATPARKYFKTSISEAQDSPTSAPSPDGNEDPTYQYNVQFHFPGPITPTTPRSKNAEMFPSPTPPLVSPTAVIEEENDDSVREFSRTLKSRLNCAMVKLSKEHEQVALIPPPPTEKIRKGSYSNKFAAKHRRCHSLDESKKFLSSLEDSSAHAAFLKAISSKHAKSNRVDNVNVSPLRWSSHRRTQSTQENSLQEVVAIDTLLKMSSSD
Assay: pull-down

binding result: binds
B1: Cks1-ALFA (natural protein, S. cerevisiae, UniProt P20486 1-150, looked up)
chain: MYHHYHAFQGRKLTDQERARVLEFQDSIHYSPRYSDDNYEYRHVMLPKAMLKVIPSDYFNSEVGTLRILTEDEWRGLGITQSLGWEHYECHAPEPHILLFKRPLNYEAELRAATAAAQQQQQQQQQQQQQQQQHQTQSISNDMQVPPQIS
